# According to PMC10794152 (2023):
# B1: PfCSS–PfPTRAMP heterodimer (complex)
# chain 1: QDEKSVKNICVCDFTDKLNFLPLEKTKILCELKPQYGEDIKIIANKEYEINCMNNSKVFCPLKDTFINNTNIKLYSPKLHFEIKDITHKGKNAALYYLKIDEEASDIFFSCSIKPKQVSGLLEGEVRVNLKKHINEEYSIFNEEEDVHVCDFSKGNLDITPSAGFYLKNSRNVSCIYRVIPNKLFLIKLPKLDIVTEKLLPSIVNCLSEFSFINFTLKHVQEGDNYISFNVIFGEFKKHFNLTCSLDLSDFQQEPCNLGKTANITFIFSK
# chain 2: CNLKVRNNWEHFLQVYQNNGNFKMEILEPECTIQKNLPSEEEKEEFIDFDRKELLLHDFVVIKNSQFTDEKTLELYLSKEENNKSYLMLTFYLGDLKLMIGHNSPYEISLILNVATVNKNMSNCKNNSYNIVLLKTTDVFNTSDLEILEGPIQFSLGKSSGAFRINVTNFFLNNTWKAFTKDKISFLIKPEENCYTILENKINKPQLLIEKKTTFYSEWGEWSNCSMDCDHPDNVQIRERECIHPSGDCFKGDLKESRPCIIPLPPCNELFSHKDNST
# B2: basigin ectodomain (domain or fragment)
# chain: AAGTVFTTVEDLGSKILLTCSLNDSATEVTGHRWLKGGVVLKEDALPGQKTEFKVDSDDQWGEYSCVFLPEPMGTANIQLHGPPRVKAVKSSEHINEGETAMLVCKSESVPPVTDWAWYKITDSEDKALMNGSESRFFVSSSQGRSELHIENLNMEADPGQYRCNGTSSKGSDQAIITLRVRSHLAAL
# modifications: labelled with Alexa Fluor 488 (protein-labelling kit)
# B3: full-length human basigin (receptor)
# chain: AAGTVFTTVEDLGSKILLTCSLNDSATEVTGHRWLKGGVVLKEDALPGQKTEFKVDSDDQWGEYSCVFLPEPMGTANIQLHGPPRVKAVKSSEHINEGETAMLVCKSESVPPVTDWAWYKITDSEDKALMNGSESRFFVSSSQGRSELHIENLNMEADPGQYRCNGTSSKGSDQAIITLRVRSHLAALWPFLGIVAEVLVLVTIIFIYEKRRKPEDVLDDDDAGSAPLKSSGQHQNDKGKNVRQRNSS
# modifications: labelled with Alexa Fluor 488 (protein-labelling kit)
# B4: PfRH5 (natural protein)
# chain: ENAIKKTKNQENNLTLLPIKSTEEEKDDIKNGKDIKKEIDNDKENIKTNNAKDHSTYIKSYLNTNVNDGLKYLFIPSHNSFIKKYSVFNQINDGMLLNEKNDVKNNEDYKNVDYKNVNFLQYHFKELSNYNIANSIDILQEKEGHLDFVIIPHYTFLDYYKHLSYNSIYHKSSTYGKYIAVDAFIKKINEAYDKVKSKCNDIKNDLIATIKKLEHPYDINNKNDDSYRYDISEEIDDKSEETDDETEEVEDSIQDTDSNHTPSNKKKNDLMNRAFKKMMDEYNTKKKKLIKCIKNHENDFNKICMDMKNYGTNLFEQLSCYNNNFCNTNGIRYHYDEYIHKLILSVKSKNLNKDLSDMTNILQQSELLLTNLNKKMGSYIYIDTIKFIHKEMKHIFNRIEYHTKIINDKTKIIQDKIKLNIWRTFQKDELLKRILDMSNEYSLFITSDHLRQMLYNTFYSKEKHLNNIFHHLIYVLQMKFNDVPIKMEYFQTYKKNKPLTQ
# How the values were obtained:
# PfRIPR tail [1] = target: T1, PfRIPR tail (P. falciparum, UniProt O97302 717-1086, N964Q | N1021Q); assay: SPR; replicate 4
# PfRIPR [2] = target: T2, PfRIPR (P. falciparum, UniProt O97302 21-1086); assay: SPR; replicate 4
# PfRIPR tail [3] = target: T1, PfRIPR tail; assay: SPR; replicate 2
# PfRIPR tail [4] = target: T1, PfRIPR tail; assay: SPR; replicate 1
# PfRIPR [5] = target: T2, PfRIPR; assay: SPR; replicate 1
# PfRCR complex [6] = target: T3, PfRCR complex (P. falciparum, UniProt Q8IFM8;O97302); assay: MST; replicate 2
# PfRCR complex [7] = target: T3, PfRCR complex; assay: MST; replicate 1
# [8] = target: B3; assay: MST; replicate 2
# basigin ectodomain = target: B2; assay: MST; replicate 2
binder,measurement,setting,value
B1,Kd,PfRIPR tail [1],4900 nM
same,Kd,PfRIPR [2],4320 nM
same,Kd,PfRIPR tail [3],5370 nM
same,Kd,PfRIPR tail [4],2790 nM
same,Kd,PfRIPR [5],2970 nM
B2,Kd,PfRCR complex [6],184 nM
same,Kd,PfRCR complex [7],125 nM
B3,Kd,PfRCR complex [6],181 nM
same,Kd,PfRCR complex [7],149 nM
B4,Kd,[8],171 nM
same,Kd,basigin ectodomain,151 nM
